Results reported in the supplement of paper PMC9732359.
± gives the uncertainty stated by the source.

Experiment: protein stability index of a GFP-peptide fusion (yeast GPS) (PSI 1-4); higher = more stable; sorted into four equal gates, so the index is relative within each strain
How it was run: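 Mid-log yeast cultures in leucine-free medium, carrying a pooled plasmid library, were sorted into four equal gates by their GFP/Cherry fluorescence ratio. Each plasmid expressed Cherry along with GFP fused upstream of a tiled 17-residue yeast protein peptide. Plasmids recovered from each gate were PCR-amplified and Illumina-sequenced, with reads assigned to strains by barcodes. The protein stability index was obtained by summing each gate's read frequency weighted by its gate number.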

Sequence | protein stability index (doa10∆) | protein stability index (pdr5∆) | protein stability index (san1∆) | protein stability index (ubr1∆)
GYRSRTRYMFQRDFRKH [RPL21A] | 3.16 ± 0.07 | 3.19 ± 0.08 | 3.16 ± 0.049 | 3.3 ± 0.049
GYVSSLVEPSKVGQFDQ [FAS1] | 1.52 ± 0.082 | 1.94 ± 0.082 | 1.72 ± 0.12 | 1.91 ± 0.078
HAKFSPVSTASYRLLPQ [RPC40] | 1.71 ± 0.076 | 1.75 ± 0.055 | 1.84 ± 0.089 | 2.23 ± 0.077
HANAAAVYFADTSGLKI [SIN4] | 2.37 ± 0.067 | 2.56 ± 0.065 | 2.23 ± 0.073 | 2.49 ± 0.053
HARTAAVTHNLYYDEDI [PUP2] | 3.21 ± 0.16 | 3.22 ± 0.17 | 2.86 ± 0.23 | 2.63 ± 0.1
HASKAIGLPRHSLAYLL [RRP6] | 2.24 ± 0.046 | 2.2 ± 0.048 | 2.37 ± 0.059 | 1.72 ± 0.037
HAYRDVLAQYHEAKERI [SNF6] | 2.98 ± 0.066 | 3.43 ± 0.071 | 3.09 ± 0.059 | 3.31 ± 0.051
HCGALNGVVKKAAAGAG [RPO31] | 1.35 ± 0.27 | 2.38 ± 0.19 | – | –
HCITSITLALADAGIEL [MTR3] | 1.5 ± 0.071 | 1.86 ± 0.094 | – | 1.55 ± 0.097
HDADLEVSMNSIFAMGL [RPN1] | 1.85 ± 0.038 | 2.69 ± 0.045 | 2.65 ± 0.047 | 2.4 ± 0.034
HDEKSDSLNEWIKFDQE [RPN7] | 3.19 ± 0.13 | 3.29 ± 0.22 | 3.27 ± 0.076 | 3.21 ± 0.072
HEAKERIRQKEVTAGEA [SNF6] | 3 ± 0.18 | – | 2.67 ± 0.25 | 2.6 ± 0.074
HEDLVNSIESKNLSLQT [COR1] | 2.96 ± 0.087 | 2.96 ± 0.074 | 3.09 ± 0.083 | 2.97 ± 0.073
HESTSRTDQYTIDNIDS [YMR129W/POM152] | 2.84 ± 0.053 | 2.9 ± 0.053 | 2.9 ± 0.045 | 2.86 ± 0.045
HFENAKVIDLDTKLKAH [YIL149C/MLP2] | 2.62 ± 0.073 | 2.73 ± 0.086 | 2.09 ± 0.11 | 2.48 ± 0.073
HFFSKSCSFFAKLSDTL [NUT1] | 2.06 ± 0.047 | 1.77 ± 0.041 | 1.69 ± 0.085 | 1.95 ± 0.035
HFQDQKNKKIEVYTKTI [POP7] | 3.19 ± 0.11 | 2.83 ± 0.12 | 3.23 ± 0.084 | 2.7 ± 0.086
HFVRDLGTIESAQAETE [DIS3] | 2.16 ± 0.26 | 2.42 ± 0.13 | 2.85 ± 0.21 | 2.49 ± 0.095
HGDAAVLLVEKYGAEYD [NAS6] | 1.94 ± 0.21 | – | 2.96 ± 0.22 | 3.04 ± 0.19
HGGKMKPEIDENGTLLV [RPR2] | 3.16 ± 0.078 | 3.14 ± 0.11 | 3.05 ± 0.075 | 2.97 ± 0.047
HGTSTSAEDEENIIQRL [CDC53] | 3.13 ± 0.064 | 3.34 ± 0.059 | 3.13 ± 0.044 | 3.06 ± 0.057
HHDYRSYYGIVCLMQIS [RRP6] | 2.03 ± 0.085 | 1.67 ± 0.067 | 1.32 ± 0.12 | 1.68 ± 0.076
HIEKLENEFVVLLDARD [CDC53] | 3.35 ± 0.088 | 3.05 ± 0.081 | 2.9 ± 0.14 | 3.27 ± 0.091
HILPEVPPVENFPVRQW [TAF14] | 2.71 ± 0.12 | 3.05 ± 0.088 | 2.95 ± 0.073 | 3.05 ± 0.055

Sequence | protein stability index (doa10∆) | protein stability index (pdr5∆) | protein stability index (san1∆) | protein stability index (ubr1∆)
HKCDELITLFNKGELET [RPO31] | 2.72 ± 0.095 | 3.15 ± 0.07 | 2.98 ± 0.094 | 2.92 ± 0.1
HKHNIMKNENANPKKLA [CDC53] | 2.14 ± 0.042 | 2.31 ± 0.049 | 2 ± 0.064 | 2.35 ± 0.057
HKLRESLPLIVFLRNRL [RPS4A] | 1.85 ± 0.052 | 1.57 ± 0.053 | 1.4 ± 0.1 | 1.43 ± 0.043
HKSIELISNLLFSKNRN [YCS4] | 2.25 ± 0.055 | 2.47 ± 0.047 | 2.52 ± 0.046 | 2.41 ± 0.05
HKTMSIVGVLQDDADPM [RPT2] | 1.6 ± 0.18 | 1.3 ± 0.2 | 1.58 ± 0.21 | 1.85 ± 0.13
HKVQTKLTRELEKKFPD [RPS7B] | 2.82 ± 0.16 | 3.07 ± 0.093 | 3.1 ± 0.058 | 3.07 ± 0.055
HLKHENANDETTAVEDE [RPB4] | 2.92 ± 0.067 | 3.08 ± 0.093 | 3.17 ± 0.086 | 3.17 ± 0.14
HNQSPRNTYQSAMGKQA [RPB2] | 2.48 ± 0.063 | 2.77 ± 0.062 | 2.37 ± 0.06 | 2.25 ± 0.039
HPKLIKNKSGKIFVETK [FAS1] | 2.3 ± 0.067 | 2.76 ± 0.067 | 2.47 ± 0.13 | 2.67 ± 0.1
HQNVIIGSNGSGKSNFF [SMC3] | 3.07 ± 0.086 | 2.7 ± 0.091 | 2.84 ± 0.069 | 2.85 ± 0.057
HSLREYINGKATALANL [RPO31] | 3.06 ± 0.086 | 3.21 ± 0.095 | 2.57 ± 0.088 | 2.99 ± 0.068
HTLCNRCGRRSFHVQKK [RPL37A] | 2.98 ± 0.035 | 2.72 ± 0.048 | 2.83 ± 0.031 | 2.85 ± 0.029
HTQANEPNSAKKIRFLQ [RGR1] | 2.98 ± 0.24 | 3.51 ± 0.11 | 3.12 ± 0.22 | 3.33 ± 0.18
HVFQYANRPRLVGRKPA [RPC37] | 2.86 ± 0.23 | – | 2.28 ± 0.28 | 2.69 ± 0.082
HYDNTTRNSLGNVIQFI [RPO21] | 2.45 ± 0.04 | 2.62 ± 0.043 | 2.87 ± 0.034 | 2.86 ± 0.03
IAASAFLSLLNLATKGM [REC8] | 1.54 ± 0.054 | 1.52 ± 0.054 | 1.71 ± 0.1 | 1.62 ± 0.046
IAKSQDKKSCSVDDVLS [DPB4] | 3.28 ± 0.057 | 3.15 ± 0.077 | 3.22 ± 0.055 | 3.16 ± 0.039
IATDGGRICRPLIIVSD [RET1] | 2.01 ± 0.046 | 2.1 ± 0.037 | 1.73 ± 0.06 | 2.14 ± 0.038
ICERIFEQGQALKEDER [RRI2] | – | – | – | 3.21 ± 0.19
ICIVGGYDDFQEEGSFE [FAS2] | 2.98 ± 0.16 | 2.5 ± 0.11 | 3.5 ± 0.1 | –
ICKNCSAILLSETDKRQ [RPO31] | 2.59 ± 0.086 | 2.85 ± 0.058 | 2.81 ± 0.068 | 2.96 ± 0.041
ICNTLNIAKDLKWKKGI [SMC1] | 1.43 ± 0.1 | 1.26 ± 0.14 | 1.45 ± 0.17 | 2.69 ± 0.24
IDEDIGNNVQENELVIT [RMP1] | 3.28 ± 0.17 | – | – | 3.39 ± 0.16
IDESMPDTAIDSQMDEA [GRR1] | 3.01 ± 0.093 | 3.08 ± 0.08 | 2.85 ± 0.078 | 3.06 ± 0.059
